Assay results taken from patent US20200199204A1 (UNITED STATES OF AMERICA AS REPRESENTED BY THE SECRETARY …, published 2020).

What was measured:
Test in all cases: cell-based or functional assay
HIV-1 Env of CAP256.PI = HIV-1 Env of CAP256.PI (HIV-1)
HIV-1 Env of ZM197.7 = HIV-1 Env of ZM197.7 (HIV-1)
HIV-1 Env of C1080.c3 = HIV-1 Env of C1080.c3 (HIV-1)
HIV-1 Env of DU172.17 = HIV-1 Env of DU172.17 (HIV-1)
HIV-1 Env of ZM214.15 = HIV-1 Env of ZM214.15 (HIV-1)
HIV-1 Env of 6535.3 = HIV-1 Env of 6535.3 (HIV-1)
HIV-1 Env of CAP45.G3 = HIV-1 Env of CAP45.G3 (HIV-1)
HIV-1 Env of CAP244.D3 = HIV-1 Env of CAP244.D3 (HIV-1)
HIV-1 Env of Q842.d12 = HIV-1 Env of Q842.d12 (HIV-1)
HIV-1 Env of CAAN.A2 = HIV-1 Env of CAAN.A2 (HIV-1)
HIV-1 Env of RHPA.7 = HIV-1 Env of RHPA.7 (HIV-1)
HIV-1 Env of THRO.18 = HIV-1 Env of THRO.18 (HIV-1)
HIV-1 Env of ZM135.10a = HIV-1 Env of ZM135.10a (HIV-1)
HIV-1 Env of Q259.d2.17 = HIV-1 Env of Q259.d2.17 (HIV-1)
HIV-1 Env of DU422.01 = HIV-1 Env of DU422.01 (HIV-1)
HIV-1 Env of 96ZM651.02 = HIV-1 Env of 96ZM651.02 (HIV-1)
HIV-1 Env of MB539.2B7 = HIV-1 Env of MB539.2B7 (HIV-1)
HIV-1 Env of 191821.E6.1 = HIV-1 Env of 191821.E6.1 (HIV-1)
HIV-1 Env of CAP210.E8 = HIV-1 Env of CAP210.E8 (HIV-1)
HIV-1 Env of ZM53.12 = HIV-1 Env of ZM53.12 (HIV-1)
HIV-1 Env of TRO.11 = HIV-1 Env of TRO.11 (HIV-1)
HIV-1 Env of Q23.17 = HIV-1 Env of Q23.17 (HIV-1)
HIV-1 Env of AC10.29 = HIV-1 Env of AC10.29 (HIV-1)
HIV-1 Env of MB201 = HIV-1 Env of MB201 (HIV-1)
HIV-1 Env of PVO.04 = HIV-1 Env of PVO.04 (HIV-1)
HIV-1 Env of SC422.8 = HIV-1 Env of SC422.8 (HIV-1)
HIV-1 Env of Q769.d22 = HIV-1 Env of Q769.d22 (HIV-1)
HIV-1 Env of Q168.a2 = HIV-1 Env of Q168.a2 (HIV-1)
HIV-1 Env of BG505.w6m = HIV-1 Env of BG505.w6m (HIV-1)
HIV-1 Env of DU156.12 = HIV-1 Env of DU156.12 (HIV-1)
HIV-1 Env of 6405.v4.c34 = HIV-1 Env of 6405.v4.c34 (HIV-1)
HIV-1 Env of CAP256.SU = HIV-1 Env of CAP256.SU (HIV-1)
HIV-1 Env of ZM233.6 = HIV-1 Env of ZM233.6 (HIV-1)
HIV-1 Env of RW020.2 = HIV-1 Env of RW020.2 (HIV-1)
HIV-1 Env of 0260.v5.c36 = HIV-1 Env of 0260.v5.c36 (HIV-1)
HIV-1 Env of ZM109.4 = HIV-1 Env of ZM109.4 (HIV-1)
HIV-1 Env of ZM249.1 = HIV-1 Env of ZM249.1 (HIV-1)
HIV-1 Env of UG037.8 = HIV-1 Env of UG037.8 (HIV-1)
HIV-1 Env of TRJO.58 = HIV-1 Env of TRJO.58 (HIV-1)
HIV-1 Env of WITO.33 = HIV-1 Env of WITO.33 (HIV-1)
HIV-1 Env of CM244.ec1 = HIV-1 Env of CM244.ec1 (HIV-1)
HIV-1 Env of Q461.e2 = HIV-1 Env of Q461.e2 (HIV-1)
HIV-1 Env of KER2008.12 = HIV-1 Env of KER2008.12 (HIV-1)
HIV-1 Env of 3016.V5.c36 = HIV-1 Env of 3016.V5.c36 (HIV-1)
HIV-1 Env of KER2018.11 = HIV-1 Env of KER2018.11 (HIV-1)
HIV-1 Env of REJO.67 = HIV-1 Env of REJO.67 (HIV-1)
HIV-1 Env of QH0692.42 = HIV-1 Env of QH0692.42 (HIV-1)

B1: CAP256-VRC26.12 (antibody, V domains shown)
VH: EVQLVQSGGGVVQPGRSLRLSCAAPYFEFGRYGFHWVRQAPGKGLEWVASISFAGRDYYHSPSVWGRFTISRDNSKNTLYLQMNSLRIEDTALYFCARDLRESECEEWESDYYDFGKKGPCVKPRGVAGGLDLWGQGTMVIVSS
VL: QSVLTQPPSVSTAPGQTVTVSCSGGTSNTGNNFVSWYQHLPGTAPKLLIYENNKRPLGVPDRFSGAKSGTSATLAITGLQTGDEGDYYCATWSGSLNIGTGTKVSVLG
neutralization IC50 (HIV-1 Env of CAP256.PI): > 50 µg/mL
neutralization IC50 (HIV-1 Env of ZM197.7): > 50 µg/mL
neutralization IC50 (HIV-1 Env of C1080.c3): > 50 µg/mL
neutralization IC50 (HIV-1 Env of DU172.17): > 50 µg/mL
neutralization IC50 (HIV-1 Env of ZM214.15): > 50 µg/mL
neutralization IC50 (HIV-1 Env of 6535.3): > 50 µg/mL
neutralization IC50 (HIV-1 Env of CAP45.G3): > 50 µg/mL
neutralization IC50 (HIV-1 Env of CAP244.D3): > 50 µg/mL
neutralization IC50 (HIV-1 Env of Q842.d12): > 50 µg/mL
neutralization IC50 (HIV-1 Env of CAAN.A2): > 50 µg/mL
neutralization IC50 (HIV-1 Env of RHPA.7): > 50 µg/mL
neutralization IC50 (HIV-1 Env of THRO.18): > 50 µg/mL
neutralization IC50 (HIV-1 Env of ZM135.10a): > 50 µg/mL
neutralization IC50 (HIV-1 Env of Q259.d2.17): > 50 µg/mL
neutralization IC50 (HIV-1 Env of DU422.01): > 50 µg/mL
neutralization IC50 (HIV-1 Env of 96ZM651.02): > 50 µg/mL
neutralization IC50 (HIV-1 Env of MB539.2B7): > 50 µg/mL
neutralization IC50 (HIV-1 Env of 191821.E6.1): > 50 µg/mL
neutralization IC50 (HIV-1 Env of CAP210.E8): 0.072 µg/mL
neutralization IC50 (HIV-1 Env of ZM53.12): 0.211 µg/mL
neutralization IC50 (HIV-1 Env of TRO.11): > 50 µg/mL
neutralization IC50 (HIV-1 Env of Q23.17): > 50 µg/mL
neutralization IC50 (HIV-1 Env of AC10.29): > 50 µg/mL
neutralization IC50 (HIV-1 Env of MB201): > 50 µg/mL
neutralization IC50 (HIV-1 Env of PVO.04): > 50 µg/mL
neutralization IC50 (HIV-1 Env of SC422.8): > 50 µg/mL
neutralization IC50 (HIV-1 Env of Q769.d22): > 50 µg/mL
neutralization IC50 (HIV-1 Env of Q168.a2): > 50 µg/mL
neutralization IC50 (HIV-1 Env of BG505.w6m): > 50 µg/mL
neutralization IC50 (HIV-1 Env of DU156.12): > 50 µg/mL
neutralization IC50 (HIV-1 Env of 6405.v4.c34): > 50 µg/mL
neutralization IC50 (HIV-1 Env of CAP256.SU): 0.032 µg/mL
neutralization IC50 (HIV-1 Env of ZM233.6): > 50 µg/mL
neutralization IC50 (HIV-1 Env of RW020.2): > 50 µg/mL
neutralization IC50 (HIV-1 Env of 0260.v5.c36): > 50 µg/mL
neutralization IC50 (HIV-1 Env of ZM109.4): > 50 µg/mL
neutralization IC50 (HIV-1 Env of ZM249.1): > 50 µg/mL
neutralization IC50 (HIV-1 Env of UG037.8): > 50 µg/mL
neutralization IC50 (HIV-1 Env of TRJO.58): > 50 µg/mL
neutralization IC50 (HIV-1 Env of WITO.33): > 50 µg/mL
neutralization IC50 (HIV-1 Env of CM244.ec1): > 50 µg/mL
neutralization IC50 (HIV-1 Env of Q461.e2): > 50 µg/mL
neutralization IC50 (HIV-1 Env of KER2008.12): > 50 µg/mL
neutralization IC50 (HIV-1 Env of 3016.V5.c36): 7.93 µg/mL
neutralization IC50 (HIV-1 Env of KER2018.11): > 50 µg/mL
neutralization IC50 (HIV-1 Env of REJO.67): > 50 µg/mL
neutralization IC50 (HIV-1 Env of QH0692.42): > 50 µg/mL

B2: CAP256-VRC26.11 (antibody, V domains shown)
VH: EVQLVESGGGVVPPGKSLTLSCVASRFTFSAFGMHWVRQAPGKGLEWVASISFAGIKKYYADSVKGRFSISRDNSNTLFLQMNGLRGEDTGLYHCVKDMRELECEEWASDYYDFGKPQPCLDRRGVSGISAWWGPGTMVTVSS
VL: QSVLTQPPSVSAAPGQNVTISCSGPPSHIEKNDVSWYQRLPGMAPKMVIYESKRRPLGIPVRFSASRSGSSATLVITGLQTADEADYYCGTWDGRMNFGTGTTVSVLG
neutralization IC50 (HIV-1 Env of CAP256.PI): > 50 µg/mL
neutralization IC50 (HIV-1 Env of ZM197.7): 0.055 µg/mL
neutralization IC50 (HIV-1 Env of C1080.c3): 0.018 µg/mL
neutralization IC50 (HIV-1 Env of DU172.17): > 50 µg/mL
neutralization IC50 (HIV-1 Env of ZM214.15): > 50 µg/mL
neutralization IC50 (HIV-1 Env of 6535.3): > 50 µg/mL
neutralization IC50 (HIV-1 Env of CAP45.G3): > 50 µg/mL
neutralization IC50 (HIV-1 Env of CAP244.D3): > 50 µg/mL
neutralization IC50 (HIV-1 Env of Q842.d12): > 50 µg/mL
neutralization IC50 (HIV-1 Env of CAAN.A2): > 50 µg/mL
neutralization IC50 (HIV-1 Env of RHPA.7): > 50 µg/mL
neutralization IC50 (HIV-1 Env of THRO.18): > 50 µg/mL
neutralization IC50 (HIV-1 Env of ZM135.10a): > 50 µg/mL
neutralization IC50 (HIV-1 Env of Q259.d2.17): > 50 µg/mL
neutralization IC50 (HIV-1 Env of DU422.01): 11.5 µg/mL
neutralization IC50 (HIV-1 Env of 96ZM651.02): > 50 µg/mL
neutralization IC50 (HIV-1 Env of MB539.2B7): > 50 µg/mL
neutralization IC50 (HIV-1 Env of 191821.E6.1): > 50 µg/mL
neutralization IC50 (HIV-1 Env of CAP210.E8): 0.073 µg/mL
neutralization IC50 (HIV-1 Env of ZM53.12): 0.081 µg/mL
neutralization IC50 (HIV-1 Env of TRO.11): > 50 µg/mL
neutralization IC50 (HIV-1 Env of Q23.17): > 50 µg/mL
neutralization IC50 (HIV-1 Env of AC10.29): > 50 µg/mL
neutralization IC50 (HIV-1 Env of MB201): > 50 µg/mL
neutralization IC50 (HIV-1 Env of PVO.04): 10.8 µg/mL
neutralization IC50 (HIV-1 Env of SC422.8): > 50 µg/mL
neutralization IC50 (HIV-1 Env of Q769.d22): > 50 µg/mL
neutralization IC50 (HIV-1 Env of Q168.a2): > 50 µg/mL
neutralization IC50 (HIV-1 Env of BG505.w6m): 4.2 µg/mL
neutralization IC50 (HIV-1 Env of DU156.12): > 50 µg/mL
neutralization IC50 (HIV-1 Env of 6405.v4.c34): > 50 µg/mL
neutralization IC50 (HIV-1 Env of CAP256.SU): 0.055 µg/mL
neutralization IC50 (HIV-1 Env of ZM233.6): 0.322 µg/mL
neutralization IC50 (HIV-1 Env of RW020.2): > 50 µg/mL
neutralization IC50 (HIV-1 Env of 0260.v5.c36): > 50 µg/mL
neutralization IC50 (HIV-1 Env of ZM109.4): > 50 µg/mL
neutralization IC50 (HIV-1 Env of ZM249.1): 34.5 µg/mL
neutralization IC50 (HIV-1 Env of UG037.8): > 50 µg/mL
neutralization IC50 (HIV-1 Env of TRJO.58): > 50 µg/mL
neutralization IC50 (HIV-1 Env of WITO.33): > 50 µg/mL
neutralization IC50 (HIV-1 Env of CM244.ec1): 26.7 µg/mL
neutralization IC50 (HIV-1 Env of Q461.e2): > 50 µg/mL
neutralization IC50 (HIV-1 Env of KER2008.12): > 50 µg/mL
neutralization IC50 (HIV-1 Env of 3016.V5.c36): 0.3 µg/mL
neutralization IC50 (HIV-1 Env of KER2018.11): 1.76 µg/mL
neutralization IC50 (HIV-1 Env of REJO.67): > 50 µg/mL
neutralization IC50 (HIV-1 Env of QH0692.42): > 50 µg/mL
